Measurements from the nanobody polyreactivity screen of Harvey et al. (2022).

Assay: yeast display, Sf9 membrane polyspecificity reagent, FACS + sequencing; frameworks hold sequencing errors
Outline: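 Nanobodies came from a synthetic yeast display library in Saccharomyces cerevisiae BJ5465, induced with galactose for 36–48 hours and stained for 1 hour at 4 °C with 10% biotinylated, detergent-solubilized Sf9 membrane reagent. Cells were enriched on streptavidin microbeads and then FACS-sorted, with low and high (top ~1%) gates set on anti-HA fluorescence for expression and streptavidin fluorescence for reagent binding. Each polyreactivity label reflects the gate a clone came from. Genes were amplified by colony PCR, sequenced by MiSeq 2 × 250 and filtered by CDR length.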

Row | Sequence | polyreactivity (PSR sort gate)
1 | QVQLVESGGGLVQAGGSLRLSCAASGLIFPPYAMGWYRQAPGKEREFVARISWSTSSTYYADSVKGRFTISRDNAKNTVYLQMNSLKPEDTAVYYCNARFDDWWGEFDYWGQGTQVTVSS | high polyreactivity
2 | QVQLVESGGGLVQAGGSLRLSCAASGFTITRYAMGWYRQAPGKERELVAAISKSGGSTFYADSVKGRFTISRDNAKNTVYLQMNSLKPEDTAVYYCAKVLRAKNSFDYWGQGTQVTVSS | high polyreactivity
3 | QVQLVESGGGLVQAGGSLRLSCAASGIIFYANVMGLYRQAPGKERELVAGISRNGGRTYYADSVKGRFTISRDNAKNTVYLQMNSLKPADTAVYYCAALGSYTSIFDYWGQGTQVTVSS | high polyreactivity
4 | QVQHVESGGGLVQAGGSLRLSCADSGSTFWFNAMGWYRQAHGKERELVAAIDWSDGSTYYADSVKGRFTISRDNAKNTVYLQMNSLKPEDTAVYYCAADHRYSARRSVPTLYDYWGQGTHVTVSS | low polyreactivity
5 | QVQLVESGGGLVQAGGSLRLSCAASGFIFFRNAMGWYRQAPGKERELVAAISGSGGSTYYADSVKGRFTISRDNAKNTVYLQLNSLKPEDTAVYYCAAAGPFNYDYWGQGTHVTVSS | high polyreactivity
6 | QVQLVESGGGLVQAGVSLRLSCAASGRTLPRYAMGWYRQAPGKEREFVAAITFGGDSTYYADSVKGRFTISRDNAKNTVYLQMNSLKPEDTAVYSCAAKSFRGQRFGYWGQGTQVTVSS | high polyreactivity
7 | QVQLVESGGGLVQAGGSLRLSCAASGSTFSIYTMGWYRQAPGKERELVAAINTGDGDTYYADSVKGRFTISRDNAKNTFYLQMNSLKPEDTAVYYCAAVYSQLSNLYYYWGQGTQVTVSS | low polyreactivity
8 | QVQLEESGVCLVQAGGSLRLSCAASGYIFISYARGWYREAPGKEREFVAAITGDGGSTYADSEKGRFTISRDNAKNTVYLLMNSLKPEDTAVYYCAVDGYGGEADYEFDHWGQGTQVNVSS | low polyreactivity
9 | QVQLVESGGALGQAGGSLRLTSAASGITFPRYAIGWYRHAPGKEREMVATITRSGGGTYYADSVKGRFKISRDNAKNTVYLQMNSLKPEDTSVFYCAAGALQRGVYGYGFWGQGTQVTVSS | high polyreactivity
10 | QVQLVESGGGLVQAGGSLRLSCAASGSTFTYNTMGWYRQAPGKERELVAGITKSGGSTYYADSVKGRFTISRDTAKNTVYLQMNSLKPEDTAVYYCATSTSRRYGSRHNYWGQGTQVTVSS | high polyreactivity
11 | QVQLVESGGGLVQAGGSLRLSCAASGRIFHFNAMGWYRQAPGKERELVATITKRGGRTYYADSVKGRFTISRDNAKNTVYLQMNSLKPEDTAVYYCNADQSRYSAVSGYDYWGQGTQVTVSS | high polyreactivity
12 | QVQLVESGGGLVQAGGSLRLSCAASGRTFRFYAMGWYRQAPGKERELVAAISYSGGSTYYADSVKGRFTISRDNAKNTVYLQMNSLKPEDTAVYYCNARYRLGSPVGYNYYTGYDYWGQGTQVTVSS | high polyreactivity
13 | QVQLVESGGGLVQAGGSLRLSCAASGSIFYPYAMGWYRQAPGKERELVATISWSGSSTYYADSVKGRVTISRDNAKNTVYSQMNSLKPEDTAVYYCAVRYSVLSNYRYYYWGQGTQVTVSS | low polyreactivity
14 | QVQLVESGGGLVQAGGSLRLSCAASGIIFYGYAMGWYRQAPGKERDLVAAISSGGGTNYADSVKGRFTISRDNAKNTVYLQMNSLIPEDTAVYYCASRQYRRVKQGNYWGQGTQVTVSS | high polyreactivity
15 | QVQLVDSGGGLVQAGGSLRLSCAASGRTFVSYAMGWYRQAPGKERELVAAISRSGGRTYYADSVKGRFTISRDNAMNSVYLQMNCLKPEDTAVYYCATKQYGTLARYDYWGQGSQVTVSS | high polyreactivity
16 | QVQLVESGGGLVQAGGSLRLSCAASGRILWDYAMGWYRQAPGKERELVAAISTSSGSTYYADSVKGRFTISRDNAKNTVKLQMNSLKPEHTAVYYCAADNDYSPPWFEYWGQGTQVTVSS | low polyreactivity
17 | QVQLVESGGGLVQAGGSLRLSCDASGFIFLGNAMGWYRQAPGKERELVAAISSGGSTYADSVKGRFTISRDNAKNTVYLQMNSLKPEDTSVYYCAVERAFRAQNYHEYDYWGQGTQVTVSS | low polyreactivity
18 | QDQLVESGVGLVHAGGSLRLSCAATGRIFTYNAMGWYRQAPWKEREVVAAITSSGGSTYYADSVKGRFTISRDNAKNTVYLQMNSLKQEDSAVSYCATVRRGRDYWGQGTQVTVSS | high polyreactivity
19 | QVQLVESGGGLVQAGGSLRLSCAASGRTFSFYAMGWYRQAPGKERELVAAISSGGGRTYYADSVKGRFTISRDNAKNTVYLQMHSLKPEDTAVYYCAAYRAYSGEFDYWGQGTQVTVSS | high polyreactivity
20 | QVQLVESGGGLVQAGGSLRLSCAASGITFNVYAMAWYRQAPGKERELVATITGSGGSTYYADSVKGRFTISRDNAKNTVYLQMNSQKPEDTAVYYCNAYYYFWGQGSQVTVSS | low polyreactivity
21 | QVQLVESGGGLVQAGGSLRLSCADSGSTFTRYAIGWYRQAPGKEMEFVAAISWSGGITYYADSVKGRFTISRDNAKNTVYFQMKSLKPEDTAVYYCAAKRRYTRGGYGVDYWGQGTQVTVSS | high polyreactivity
22 | QVQLVESGGGLVQPGGSLRLSCAASGATLRSNAMGWSRQAPGKERELVAGISSGGGTYYADSVKGRFTISRDNAKNTVYLQMNSLNTEDTAVYYCAKVVYFGWSVQYYYWGQGTQVNVSS | low polyreactivity

Row | Sequence | polyreactivity (PSR sort gate)
23 | QVQLVESGGCLVQAGGSLRLISAASGSTFQRYAIGWYRQAPGKERELVAAITWSNGSTYYADSVKGRFTISRDNAKNTVYLQMISLKPEDTAVYYCAAEVHFGGDYWGQGTQVTVSS | low polyreactivity
24 | QVQLVESGGGLVQAGGSLRLSSAASGFIFDYSAMGWYRQAPGKERELVAAITRDGGGTYYADSVKGRFTISRDNANNTVYLQMNRLKPEDTAVYYCAARRAVRLYYWGQGTQVTVSA | high polyreactivity
25 | QVQLVETGGGLVQAGGSLRLSCAPSGRIFGIYAMGWYRQAPGKERELVASITDGTITNYADSVKGRFTISRDNAKNTVYLQMNSLKPVDTAVYYFAAGTQAHAYVVRPIEMDYWGQGTQVTVSS | low polyreactivity
26 | QVHLVESGGGLVQAGGSLRLSCAASGIIFDHYAMVWYRPAPGKERELVAAISTGGGNTYYADSLKGRFTISRDNAKNTVYLQMNSLKPEDTAVYYCNADVLWGRRWGDYYGYDYWGQGTQVTVSS | low polyreactivity
27 | QVQLVESGGGLVQAGGSLRLRCAASGRTFSSNAMGWSRQAPGKERQLVASITWSGRTYYADSVKGRFTNSRDNAKNTVYLQMNSRNPEDHAVYYCATVYRQESYFYTLYYWGQGTQVTVSS | high polyreactivity
28 | QVQLVESGGGLVQAGGSLRLSCAASGSILPYYAMGWYRQAQGKERELLATITDGTDTYYADSVKGRFTISRDNAKNTVYLPMNSLKPEDTAVYYCNADGYVYYLHEDYWGQGTQVTVSS | low polyreactivity
29 | QLQLVESGGGLVQAGGSLRLSCAASGSIFYQYVMGWYRQAPGKEREFVAAIRYTGVGTYYADSVKGRFTLSRDNAKYTVYLQMNSLKPEDTAVYYCAARSYNRRARYDYWGQGTQVNVSS | high polyreactivity
30 | QVQLVESGGGLVQAGGSLRLSCAASGFTFYQYAMGWYRQAPGKEREFVAAISSSGSSTYYADSVKGRFTISRDNAKNTVYLQMNSLKPEDTEVYYCNAYFRNWRYSPGGYWGQGTQVTVSS | high polyreactivity
31 | QDQLVESGGGLVQAGGSLRLSCAASGRTFRRNAMGWYRPAPGKERELVAAITSSGGSTYYADSVKGRFTISRDNAKNTVYLQMNSLKPEDTAVYYCNAVGKPQSSQYYYWGQGTQVTVSS | high polyreactivity
32 | QVHLVESGGGLVQAGGSLRLSCAASGSTFYAYTMGWYRQAPGKERELVAAISSRGGRTYYADSVKGRFTISRDNAKNTVYLQMNSLKPEDTAVYYCARTSWSGVSYDYWGQGTQVTVSS | high polyreactivity
33 | QVQLVESGVGLVQAGGSLRLSCAASGYTLDNYAMGWYRQAPGKERELVAGITFSGGSTFYADSVKGRFTISRDNAKNTVYLQMNSLKPEDTAVYYCAADAEFQADHKYGYWGQGTQVTVSS | low polyreactivity
34 | QVQLVESGGGLVQAGGSLRLSCAASGFTIRWYTMGWYRQAPWKERELVATINWSGGSTYYADSVKGRFTISRDNAKNTVYLQMNSLIPEDTAVYYCARRQSGTIKTRMDYWGQGTQVTVSS | high polyreactivity
35 | QVQLVESGGGLVQAGGSLRLSCAASGSIFDSYAMGWYRQAPGKERELVAGIRWDSGSTYYADSVKGRFTISRDNAKNTVYLQINSLKPEDTAVYYCAADLFDFLLIDGFAVVTYGYWGQGTQVTVSS | low polyreactivity
36 | QVQLVESGGGLVQAGGSLRLSCAASGSIVSAYVMGWYRQAPGKERELVAAITRSGGSTYYADSVKGRFTISRDNAKNTVYLQMNSLKPEDTAVYYCAADRRWFAYWFDYWGQGTQVTVSS | low polyreactivity
37 | QVQLVESGGGLVQAGGSLRLSCAASGFIFQAYALGWYRQAPGKERELVASISYSGSRTYYADSVKGRFTISRDNAKNTVYLQMNSLKPEDTAGYYCAARYGRYYKYNYWGQGTQVTVSS | high polyreactivity
38 | QVQLVESGGGLVQAGGSLRLSCAASGRIFTGNTMGWYRQAPGKERELVATINSNGGSTYYADSVKGRFTISRDNAKNTVYLQMNSLKPEDTAVYYCAVVRNYVSRYRFYYWGQGTQVTVSS | high polyreactivity
39 | QVQLEESGGGLVQAGGSLRLSCAASGRTLGYNAMGWYRQAPGKERELVAAISYGGGGTYYADSVKGRFTISRDNAKNTVYLQMNSLKPEDSAVYYCAKPRAFVGYNHWGQGTQVSVSS | low polyreactivity
40 | QVQLVESGGGLVQAGGSLRLTCAASGFIFPNNAMGWYRQAPGKESELVAAISYSGGSTNYADSVKARFTISRDNAKNTVYLQMNSLKPEDTAVYYCAKADPAYLWGLREYDYWGQGTQVTVSS | low polyreactivity
41 | QVQLVESGGGLVQAGGSLRLSCAASGRTFKYNVMGWYRQAPGKERELVAAISSGGGTNYADSVKGRFTISRDNAKNTVYLQMNSLKPEDTAVYYCAAKYAWRLLEMYYWGQGTQVTVSS | low polyreactivity
42 | QVQVVESGGGLVQAGGSLRLSCAASGSTCYFNAMGWYRQAPGTERELVAAIEWSGGSTYYADSVKGRFTISRDNAKNTVYLQMTSLKPEDTAVYYCNRRDVIFLTGPPQYIFPTYDYWGQGTQVTVSS | low polyreactivity
43 | QVQLVESGGGLVQAGGRLRLSCAPSGGIFNPNVMGGYRQSPGKETELVASITGRGGNTYYADSVKGRFTISRDNAKNTVYLQMNSLKPEDTAVYYCAAAIPHHSRVYYWGQGPQVTVSS | low polyreactivity
